Measurements from the Human Domainome abundance scans (Beltran et al. 2025).
± gives the uncertainty stated by the source.

B1: Tripartite motif-containing protein 44, residues 174 to 218; numbered along this chain, Q96DX7 (parent)
chain: VAKRKCPDHGLDLSTYCQEDRQLICVLCPVIGAHQGHQLSTLDEA

Variants of: B1
Assay: abundance fitness (aPCA) (normalised: wild type 0, dead -1); higher = more abundant; growth selection in yeast, the domain comes from the species named
Conditions: Homo sapiens
In the case of VAKRKCPDHGLDLSTYCQEDRQLICKLCPVIGAHQGHQLSTLDEA, the abundance fitness is reported as 0.113 ± 0.033. VAKRKCPDHGLDLSTYCQEDRQLICMLCPVIGAHQGHQLSTLDEA showed an abundance fitness of -0.011 ± 0.033. With VAKRKCPDHGLDLSTYCQEDRQLICFLCPVIGAHQGHQLSTLDEA the abundance fitness was -0.052 ± 0.045. For VAKRKCPDHGLDLSTYCQEDRQLICRLCPVIGAHQGHQLSTLDEA, the abundance fitness was 0.082 ± 0.027. VAKRKCPDHGLDLSTYCQEDRQLICLLCPVIGAHQGHQLSTLDEA gave an abundance fitness of -0.025 ± 0.027. VAKRKCPDHGLDLSTYCQEDRQLICGLCPVIGAHQGHQLSTLDEA gave an abundance fitness of 0.002 ± 0.026. VAKRKCPDHGLDLSTYCQEDRQLICYLCPVIGAHQGHQLSTLDEA gave an abundance fitness of -0.041 ± 0.038. For VAKRKCPDHGLDLSTYCQEDRQLICALCPVIGAHQGHQLSTLDEA, the abundance fitness was 0.042 ± 0.026. Work on VAKRKCPDHGLDLSTYCQEDRQLICDLCPVIGAHQGHQLSTLDEA yielded an abundance fitness of 0.046 ± 0.031. Work on VAKRKCPDHGLDLSTYCQEDRQLICQLCPVIGAHQGHQLSTLDEA yielded an abundance fitness of 0.074 ± 0.032. In the case of VAKRKCPDHGLDLSTYCQEDRQLICCLCPVIGAHQGHQLSTLDEA, the abundance fitness is reported as 0.002 ± 0.032. Work on VAKRKCPDHGLDLSTYCQEDRQLICPLCPVIGAHQGHQLSTLDEA yielded an abundance fitness of 0.029 ± 0.031. For VAKRKCPDHGLDLSTYCQEDRQLICSLCPVIGAHQGHQLSTLDEA, the abundance fitness was 0.084 ± 0.029. Variant VAKRKCPDHGLDLSTYCQEDRQLICTLCPVIGAHQGHQLSTLDEA has an abundance fitness of 0.054 ± 0.029. Work on VAKRKCPDHGLDLSTYCQEDRQLICELCPVIGAHQGHQLSTLDEA yielded an abundance fitness of 0.066 ± 0.028. In the case of VAKRKCPDHGLDLSTYCQEDRQLICNLCPVIGAHQGHQLSTLDEA, the abundance fitness is reported as 0.062 ± 0.036. VAKRKCPDHGLDLSTYCQEDRQLICWLCPVIGAHQGHQLSTLDEA gave an abundance fitness of -0.065 ± 0.029. With VAKRKCPDHGLDLSTYCQEDRQLICVLRPVIGAHQGHQLSTLDEA the abundance fitness was -1 ± 0.043. With VAKRKCPDHGLDLSTYCQEDRQLICVLKPVIGAHQGHQLSTLDEA the abundance fitness was -0.744 ± 0.062. Variant VAKRKCPDHGLDLSTYCQEDRQLICVLPPVIGAHQGHQLSTLDEA has an abundance fitness of -0.882 ± 0.068. VAKRKCPDHGLDLSTYCQEDRQLICVLFPVIGAHQGHQLSTLDEA showed an abundance fitness of -0.791 ± 0.083. With VAKRKCPDHGLDLSTYCQEDRQLICVLYPVIGAHQGHQLSTLDEA the abundance fitness was -0.919 ± 0.082. Variant VAKRKCPDHGLDLSTYCQEDRQLICVLAPVIGAHQGHQLSTLDEA has an abundance fitness of -0.897 ± 0.043. With VAKRKCPDHGLDLSTYCQEDRQLICVLTPVIGAHQGHQLSTLDEA the abundance fitness was -0.982 ± 0.066. VAKRKCPDHGLDLSTYCQEDRQLICVLIPVIGAHQGHQLSTLDEA showed an abundance fitness of -1.09 ± 0.11. Work on VAKRKCPDHGLDLSTYCQEDRQLICVLWPVIGAHQGHQLSTLDEA yielded an abundance fitness of -1.14 ± 0.076. In the case of VAKRKCPDHGLDLSTYCQEDRQLICVLEPVIGAHQGHQLSTLDEA, the abundance fitness is reported as -0.704 ± 0.043. VAKRKCPDHGLDLSTYCQEDRQLICVLHPVIGAHQGHQLSTLDEA showed an abundance fitness of -0.994 ± 0.14. In the case of VAKRKCPDHGLDLSTYCQEDRQLICVLVPVIGAHQGHQLSTLDEA, the abundance fitness is reported as -1.06 ± 0.051. With VAKRKCPDHGLDLSTYCQEDRQLICVLNPVIGAHQGHQLSTLDEA the abundance fitness was -0.759 ± 0.083. VAKRKCPDHGLDLSTYCQEDRQLICVLLPVIGAHQGHQLSTLDEA showed an abundance fitness of -1.12 ± 0.059. In the case of VAKRKCPDHGLDLSTYCQEDRQLICVLDPVIGAHQGHQLSTLDEA, the abundance fitness is reported as -0.557 ± 0.059. VAKRKCPDHGLDLSTYCQEDRQLICVLMPVIGAHQGHQLSTLDEA showed an abundance fitness of -1.07 ± 0.082. In the case of VAKRKCPDHGLDLSTYCQEDRQLICVICPVIGAHQGHQLSTLDEA, the abundance fitness is reported as -0.119 ± 0.055. Variant VAKRKCPDHGLDLSTYCQEDRQLICVHCPVIGAHQGHQLSTLDEA has an abundance fitness of -0.069 ± 0.045. With VAKRKCPDHGLDLSTYCQEDRQLICVSCPVIGAHQGHQLSTLDEA the abundance fitness was -0.024 ± 0.027. In the case of VAKRKCPDHGLDLSTYCQEDRQLICVWCPVIGAHQGHQLSTLDEA, the abundance fitness is reported as -0.216 ± 0.032. In the case of VAKRKCPDHGLDLSTYCQEDRQLICVVCPVIGAHQGHQLSTLDEA, the abundance fitness is reported as -0.151 ± 0.027. With VAKRKCPDHGLDLSTYCQEDRQLICVGCPVIGAHQGHQLSTLDEA the abundance fitness was -0.25 ± 0.026. In the case of VAKRKCPDHGLDLSTYCQEDRQLICVTCPVIGAHQGHQLSTLDEA, the abundance fitness is reported as -0.212 ± 0.033. Variant VAKRKCPDHGLDLSTYCQEDRQLICVPCPVIGAHQGHQLSTLDEA has an abundance fitness of -0.624 ± 0.055. VAKRKCPDHGLDLSTYCQEDRQLICVNCPVIGAHQGHQLSTLDEA gave an abundance fitness of 0.055 ± 0.038. VAKRKCPDHGLDLSTYCQEDRQLICVCCPVIGAHQGHQLSTLDEA gave an abundance fitness of -0.283 ± 0.035. Work on VAKRKCPDHGLDLSTYCQEDRQLICVMCPVIGAHQGHQLSTLDEA yielded an abundance fitness of 0.039 ± 0.032. Work on VAKRKCPDHGLDLSTYCQEDRQLICVRCPVIGAHQGHQLSTLDEA yielded an abundance fitness of 0.024 ± 0.026. Work on VAKRKCPDHGLDLSTYCQEDRQLICVQCPVIGAHQGHQLSTLDEA yielded an abundance fitness of 0.127 ± 0.029. Variant VAKRKCPDHGLDLSTYCQEDRQLICVFCPVIGAHQGHQLSTLDEA has an abundance fitness of -0.137 ± 0.049. With VAKRKCPDHGLDLSTYCQEDRQLICVECPVIGAHQGHQLSTLDEA the abundance fitness was 0.063 ± 0.028. Work on VAKRKCPDHGLDLSTYCQEDRQLICVYCPVIGAHQGHQLSTLDEA yielded an abundance fitness of -0.059 ± 0.044. With VAKRKCPDHGLDLSTYCQEDRQLICVLCPVFGAHQGHQLSTLDEA the abundance fitness was -0.11 ± 0.043. VAKRKCPDHGLDLSTYCQEDRQLICVLCPVRGAHQGHQLSTLDEA showed an abundance fitness of 0.003 ± 0.026. VAKRKCPDHGLDLSTYCQEDRQLICVLCPVMGAHQGHQLSTLDEA gave an abundance fitness of 0.016 ± 0.03. VAKRKCPDHGLDLSTYCQEDRQLICVLCPVPGAHQGHQLSTLDEA gave an abundance fitness of -0.306 ± 0.038. Work on VAKRKCPDHGLDLSTYCQEDRQLICVLCPVQGAHQGHQLSTLDEA yielded an abundance fitness of 0.028 ± 0.031. VAKRKCPDHGLDLSTYCQEDRQLICVLCPVHGAHQGHQLSTLDEA gave an abundance fitness of 0.029 ± 0.042. Work on VAKRKCPDHGLDLSTYCQEDRQLICVLCPVEGAHQGHQLSTLDEA yielded an abundance fitness of 0.053 ± 0.03. Work on VAKRKCPDHGLDLSTYCQEDRQLICVLCPVLGAHQGHQLSTLDEA yielded an abundance fitness of -0.02 ± 0.028.
